# Data published in patent publication US20260207718A1, “METHODS FOR TREATING LATE ONSET POMPE DISEASE IN PEDIATRIC PATIENTS” (Amicus Therapeutics, Inc., priority 2022, published 2026).
# pKd: −log10 of the molar value. “Also recorded” adds a separate entry of the source. Where two headings read alike, the source gives them in different places. Marks after values point to notes of the source that are not given here.
# What was measured:
# Gaa KO mice = assay: Single fiber analysis (LAMP1/LC3) of muscle fibers from Gaa KO mice; format: in vivo
# Text: FIG. 17 depicts co-immunofluorescent staining of LAMP1 (green) (see for example, “B”) and LC3 (red) (see, for example, “A”) in single fibers isolated from the white gastrocnemius of Gaa KO mice treated with a vehicle, alglucosidase alfa, or ATB200. “C” depicts clearance of autophagic debris and absence of enlarged lysosome. A minimum of 30 fibers were examined from each animal.
# As a result, a significant portion of muscle fibers analyzed (36-60%) from ATB200-treated mice appeared normal or near-normal.
# [1] = system: pediatric subjects with late-onset Pompe disease; assay: ATB200-04 trial: safety in pediatric subjects with LOPD; format: in vivo, human; conditions: ERT-experienced subject, Cohort 2
# Description: This study includes subjects with Pompe disease except classic IOPD.
# Safety assessments include monitoring of adverse events (AEs), clinical laboratory tests (chemistry, hematology, and urinalysis), physical examinations, vital signs, 12-lead electrocardiogram (ECGs), and detection of cipaglucosidase alfa antibodies.
# [2] = Thermostability assay using SYPRO Orange; format: physicochemical
# Description: The stability of ATB200 in acidic or neutral pH buffers was evaluated in a thermostability assay using SYPRO Orange, as the fluorescence of the dye increases when proteins denature. […] As summarized in Table 10, the addition of miglustat increased the melting temperature (Tm) of ATB200 by nearly 10° C.
# [3] = Case: pediatric atypical IOPD patient, PK of ATB200 and AT2221 after 1 year; format: in vivo, human
# CIMPR [4] = molecular target: T1, CIMPR (Homo sapiens, UniProt P11717); assay: CIMPR plate binding assay
# Description: In addition to having a greater percentage of rhGAA that can bind to the CIMPR, it is important to understand the quality of that interaction. LUMIZYME® and ATB200 receptor binding was determined using a CIMPR plate binding assay. Briefly, CIMPR-coated plates were used to capture GAA. Varying concentrations of rhGAA were applied to the immobilized receptor and unbound rhGAA was washed off. The amount of remaining rhGAA was determined by GAA activity. […] For LUMIZYME®, there is on average only 10% of molecules having a bis-phosphorylated N-glycan. In contrast, on average every rhGAA molecule in ATB200 has at least one bis-phosphorylated N-glycan.
# N-glycan analysis via MALDI-TOF mass spectrometry confirmed that on average each ATB200 molecule contains at least one natural bis-M6P N-glycan structure.
# [5] = ATB200-04 trial: population PK exposure matching of adolescents to adults; format: in vivo, human; design: AUC0-24, Mean / AUC0-24, Median / AUC0-24, P5 / AUC0-24, P95 / AUC0-24, Geo Mean: unit not given beside the values; conditions: for AUC0-24, Geo Mean / AUC0-24, Mean / AUC0-24, Median / AUC0-24, P5 / AUC0-24, P95: predicted
# Text: The ATB200-04 trial seeks to evaluate the safety and tolerability of cipaglucosidase alfa/miglustat co-administration.
# Subjects have scheduled PK assessments at Day 1, Week 26, and Week 52 for plasma total GAA protein and miglustat.
# Population PK parameters include clearance (CL) and volume of distribution (V), estimated from total GAA protein concentrations and miglustat concentrations in plasma.
# Methods for Exposure Matching. Pediatric PK data from both clinical trials and expanded access programs were used for exposure matching to adult PK data. […] The previous base population PK models from cipaglucosidase alfa-atga and miglustat were rerun with the updated dataset. To account for longitudinal changes in body size for pediatric patients, the time-varying body weight was used to estimate the effects of body size on PK parameters in the population PK models. The effect of age at baseline on clearance was also evaluated in the PK models. Individual AUC0-24 and Cmax of cipaglucosidase alfa and miglustat were predicted from the PK empirical Bayes estimates (EBEs). The time-varying body weight and baseline age in pediatrics were used in the exposure prediction. PK exposures (AUC0-24 and Cmax) were predicted for each PK visit during the study; Day 1-baseline, Week 26, and Week 52. Additionally, there were unscheduled PK visits for some subjects.
# Results for Adolescent Subjects. […] The dose may have been adjusted at a later visit for exposure matching. It should be noted however, that in the early stage of the study, all subjects were started at 20 mg/kg to evaluate safety.
# CIMPR [6] = molecular target: T1, CIMPR; assay: CIMPR affinity chromatography (bound vs unbound rhGAA by GAA activity); format: binding
# Text: Multiple batches of the rhGAA according to the disclosure were produced in shake flasks and in perfusion bioreactors using CHO cell line GA-ATB200, the product of which is referred to as “ATB200.” Weak anion exchange (“WAX”) liquid chromatography was used to fractionate ATB200 rhGAA according to terminal phosphate and sialic acid. Elution profiles were generated by eluting the ERT with increasing amount of salt. The profiles were monitored by UV (A280 nm).
# To evaluate the ability of the conventional rhGAAs in MYOZYME® and LUMIZYME® to interact with the CIMPR, the two conventional rhGAA preparations were injected onto a CIMPR affinity column (which binds rhGAA having M6P groups) and the flow through collected. The bound material was eluted with a free M6 gradient. Fractions were collected in 96-well plate and GAA activity assayed by 4MU-α-glucosidase substrate. The relative amounts of unbound (flow through) and bound (M6P eluted) rhGAA were determined based on GAA activity and reported as the fraction of total enzyme. […] Indeed, only 27% of the rhGAA in MYOZYME® and 22% of the rhGAA in LUMIZYME® contained M6P that can be productive to target it to the CIMPR on muscle cells.
# [7] = system: normal and Pompe fibroblast cell lines; assay: Cellular uptake of rhGAA in fibroblasts; format: cell-based
# Description: The relative cellular uptake of ATB200 and LUMIZYME® rhGAA were compared using normal and Pompe fibroblast cell lines. Comparisons involved 5-100 nM of ATB200 according to the disclosure with 10-500 nM conventional rhGAA product LUMIZYME®. After 16-hr incubation, external rhGAA was inactivated with TRIS base and cells were washed 3-times with PBS prior to harvest. Internalized GAA measured by 4MU-α-Glucoside hydrolysis and was graphed relative to total cellular protein and the results appear in FIGS. 11A-11C.
# ATB200 was also shown to be efficiently internalized into cells. […] ATB200 saturates cellular receptors at about 20 nM, while about 250 nM of LUMIZYME® is needed to saturate cellular receptors.
# [8] = adolescent Subject 2, 20 mg/kg, Week 52, 83.8 kg
# [9] = adolescent Subject 3, 25 mg/kg, Week 52, 64.6 kg
# [10] = adolescent Subject 4, 25 mg/kg, Week 64, 53.3 kg
# [11] = adolescent Subject 5, 25 mg/kg, Week 52, 43.7 kg
# [12] = adolescent Subject 6, 25 mg/kg, Week 52, 36.5 kg
# [13] = adolescent Subject 7, 25 mg/kg, Week 52, 60.3 kg
# [14] = adolescent Subject 8, 25 mg/kg, Week 72, 38.5 kg
# T1 sequence (P11717 41-2491, species assumed): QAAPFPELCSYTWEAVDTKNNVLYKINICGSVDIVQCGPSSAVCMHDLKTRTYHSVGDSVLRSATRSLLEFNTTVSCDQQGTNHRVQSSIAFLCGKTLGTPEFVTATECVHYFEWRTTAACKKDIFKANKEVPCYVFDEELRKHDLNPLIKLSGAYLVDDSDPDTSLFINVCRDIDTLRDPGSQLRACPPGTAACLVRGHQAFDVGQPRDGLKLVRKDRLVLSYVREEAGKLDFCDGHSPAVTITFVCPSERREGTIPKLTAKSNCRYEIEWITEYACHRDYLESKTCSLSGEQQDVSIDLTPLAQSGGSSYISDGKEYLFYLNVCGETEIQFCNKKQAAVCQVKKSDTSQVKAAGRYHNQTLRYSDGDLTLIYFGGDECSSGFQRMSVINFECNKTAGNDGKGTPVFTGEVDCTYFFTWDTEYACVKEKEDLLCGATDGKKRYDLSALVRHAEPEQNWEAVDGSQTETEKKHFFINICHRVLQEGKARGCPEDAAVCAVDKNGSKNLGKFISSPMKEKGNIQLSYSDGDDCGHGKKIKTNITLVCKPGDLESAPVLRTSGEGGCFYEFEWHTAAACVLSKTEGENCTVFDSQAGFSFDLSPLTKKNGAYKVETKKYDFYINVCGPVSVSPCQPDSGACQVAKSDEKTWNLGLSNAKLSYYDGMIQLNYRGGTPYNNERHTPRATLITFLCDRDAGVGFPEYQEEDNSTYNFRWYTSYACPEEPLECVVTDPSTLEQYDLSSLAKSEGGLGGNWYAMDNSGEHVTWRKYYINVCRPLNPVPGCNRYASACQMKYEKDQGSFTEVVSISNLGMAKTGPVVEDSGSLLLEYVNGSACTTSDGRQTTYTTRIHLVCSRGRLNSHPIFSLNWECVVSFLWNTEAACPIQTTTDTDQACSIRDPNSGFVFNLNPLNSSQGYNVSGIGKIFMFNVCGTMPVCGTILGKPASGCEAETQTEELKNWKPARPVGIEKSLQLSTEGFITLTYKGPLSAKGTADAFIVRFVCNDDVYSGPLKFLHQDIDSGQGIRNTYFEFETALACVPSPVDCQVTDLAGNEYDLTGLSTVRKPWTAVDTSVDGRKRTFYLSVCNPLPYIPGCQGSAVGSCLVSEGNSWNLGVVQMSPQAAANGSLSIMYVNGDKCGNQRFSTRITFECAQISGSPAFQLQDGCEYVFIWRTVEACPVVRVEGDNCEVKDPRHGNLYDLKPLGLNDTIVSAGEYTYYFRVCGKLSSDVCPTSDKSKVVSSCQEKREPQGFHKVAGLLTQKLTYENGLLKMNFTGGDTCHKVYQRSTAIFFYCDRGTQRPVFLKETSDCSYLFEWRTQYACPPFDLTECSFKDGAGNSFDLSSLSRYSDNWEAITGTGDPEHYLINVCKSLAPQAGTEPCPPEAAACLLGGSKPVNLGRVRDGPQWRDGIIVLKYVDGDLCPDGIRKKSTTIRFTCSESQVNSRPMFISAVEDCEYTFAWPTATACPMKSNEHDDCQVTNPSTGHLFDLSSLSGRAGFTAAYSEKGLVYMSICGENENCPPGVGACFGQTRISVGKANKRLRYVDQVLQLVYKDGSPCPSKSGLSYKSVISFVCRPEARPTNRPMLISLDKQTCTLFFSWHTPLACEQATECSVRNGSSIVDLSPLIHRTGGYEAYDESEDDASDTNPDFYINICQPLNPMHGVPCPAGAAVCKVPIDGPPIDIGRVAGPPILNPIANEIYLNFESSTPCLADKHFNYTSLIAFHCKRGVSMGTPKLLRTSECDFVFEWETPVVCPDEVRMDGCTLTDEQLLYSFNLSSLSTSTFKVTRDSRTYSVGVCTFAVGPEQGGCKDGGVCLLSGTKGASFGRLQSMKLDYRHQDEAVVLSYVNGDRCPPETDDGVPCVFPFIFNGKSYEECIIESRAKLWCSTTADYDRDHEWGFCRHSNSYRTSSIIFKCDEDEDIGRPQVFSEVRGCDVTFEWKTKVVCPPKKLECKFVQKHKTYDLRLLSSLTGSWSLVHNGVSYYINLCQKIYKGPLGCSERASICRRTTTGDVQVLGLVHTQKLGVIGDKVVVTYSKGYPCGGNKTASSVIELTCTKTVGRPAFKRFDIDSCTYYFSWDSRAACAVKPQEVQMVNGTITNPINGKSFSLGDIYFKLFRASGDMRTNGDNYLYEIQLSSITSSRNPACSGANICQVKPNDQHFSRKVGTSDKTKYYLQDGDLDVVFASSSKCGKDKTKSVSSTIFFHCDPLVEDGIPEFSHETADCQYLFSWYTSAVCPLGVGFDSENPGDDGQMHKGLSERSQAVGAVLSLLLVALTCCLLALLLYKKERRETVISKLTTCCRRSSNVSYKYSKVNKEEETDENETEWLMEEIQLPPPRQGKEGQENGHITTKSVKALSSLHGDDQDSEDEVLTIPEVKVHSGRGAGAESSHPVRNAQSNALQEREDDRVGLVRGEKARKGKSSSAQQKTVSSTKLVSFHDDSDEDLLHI
substance,measurement,setting,value
"ATB200: recombinant human acid α-glucosidase with high content of N-glycans bearing mono-M6P and bis-M6P, produced from GA-ATB200 CHO cell line",Fibers with Autophagy Buildup,Gaa KO mice,40-64%*
same,Fibers with Normal or Near-normal Appearance,Gaa KO mice,36-60%
same,Lysosome Enlargement,Gaa KO mice; white gastrocnemius,dramatically decreased lysosome size; also recorded: Dramatic size
same,investigator-assessed relatedness of anaphylaxis event (both episodes),[1],definitely related
same,Tm,[2]; pH 5.2,67.3 °C
same,Tm,[2]; pH 7.4,56.2 °C
same,increase of melting temperature (Tm) by addition of miglustat,[2]; pH 7.4,~10 °C
same,Tm,[2]; pH 7.4 + 10 μM miglustat,61.6 °C
same,Tm,[2]; pH 7.4 + 30 μM miglustat,62.9 °C
same,Tm,[2]; pH 7.4 + 100 μM miglustat,66.0 °C
same,ATB200 AUC,[3]; Adult (10th-90th percentile),1001 to 1924 µg·h/mL
same,ATB200 Cmax,[3]; Adult (10th-90th percentile),223 to 363 µg/mL
same,ATB200 AUC,[3]; Adult (median),1415 µg·h/mL
same,ATB200 Cmax,[3]; Adult (median),294 µg/mL
same,ATB200 AUC,"[3]; patient with atypical IOPD, 12Y5M, 46.5 kg, ATB200 20 mg/kg + AT2221 195 mg biweekly for 1 year",1257 µg·h/mL
same,ATB200 Cmax,"[3]; patient with atypical IOPD, 12Y5M, 20 mg/kg",245 µg/mL
same,binding to CIMPR compared with LUMIZYME®,"CIMPR [4]; CIMPR plate binding assay, FIG. 10A",bound to CIMPR significantly better than LUMIZYME®
same,pKd,CIMPR [4]; M6P receptor plate binding assays,8.40 to 8.70
same,"AUC0-24, geometric LSM Ratio adolescents to adults","[5]; 90% CI (81.96, 96.88)",89.11
same,"Cmax, geometric LSM Ratio adolescents to adults","[5]; 90% CI (82.51, 104.69)",92.94
same,individual predicted AUC0-24,"[5]; adolescent Subject 1, 20 mg/kg, Week 52, 77.9 kg",1396
same,individual predicted AUC0-24,[5]; [8],1315
same,individual predicted Cmax,[5]; [8],277
same,individual predicted AUC0-24,[5]; [9],1318
same,individual predicted Cmax,[5]; [9],305
same,individual predicted AUC0-24,[5]; [10],1472
same,individual predicted Cmax,[5]; [10],294
same,individual predicted AUC0-24,[5]; [11],1175
same,individual predicted Cmax,[5]; [11],240
same,individual predicted AUC0-24,[5]; [12],1047
same,individual predicted Cmax,[5]; [12],222
same,individual predicted AUC0-24,[5]; [13],1269
same,individual predicted Cmax,[5]; [13],273
same,individual predicted AUC0-24,[5]; [14],1138
same,individual predicted Cmax,[5]; [14],229
same,predicted AUC0-24 and Cmax for adolescents relative to adult 5th and 95th percentile range,"[5]; adults N=100, adolescents N=8",well within the adult 5th and 95th percentile range
same,"AUC0-24, Geo Mean",[5]; Adolescents N=8,1259
same,"AUC0-24, Mean",[5]; Adolescents N=8,1266
same,"AUC0-24, Median",[5]; Adolescents N=8,1292
same,"AUC0-24, P5",[5]; Adolescents N=8,1079
same,"AUC0-24, P95",[5]; Adolescents N=8,1446
same,"AUC0-24, Geo Mean",[5]; Adults N=100,1413
same,"AUC0-24, Mean",[5]; Adults N=100,1461
same,"AUC0-24, Median",[5]; Adults N=100,1433
same,"AUC0-24, P5",[5]; Adults N=100,898
same,"AUC0-24, P95",[5]; Adults N=100,2162
same,rhGAA that bound to the CIMPR,CIMPR [6],more than 70%
same,rhGAA that bound to the CIMPR,CIMPR [6]; listed as ATB200 rhGAA,≥ 70%
same,concentration that saturates cellular receptors,[7]; 16-hr incubation,about 20 nM
same,uptake efficiency constant (Kuptake),"[7]; 16-hr incubation, extrapolated, FIG. 11C",2-3 nm
same,internalization into normal and Pompe fibroblast cells,[7]; FIGS. 11A-11B,internalized to a greater degree than the conventional rhGAA product LUMIZYME®
